Assay results reported in publication PMC2248580.

Biological target: human activated blood coagulation factor X (FXa) (human)
Assay: SPR; […]; 37°C; HBS (10 mM Hepes, 150 mM NaCl, 5 mM CaCl2, 0.005% P20, pH 7.4); Langmuir fit; […]

Question: With “Myotoxin II from Bothrops asper venom (from UniProt P24605 17-137) (natural protein)” as the substance, how does the Kd read?
Answer: The Kd was 1.8 nM.

Question: What about the koff of the same substance?
Answer: Its koff is 0.0178 s⁻¹.

Question: What about the kon of the same substance?
Answer: The kon was 1.04e+07 M⁻¹ s⁻¹.
